Results published in patent publication US20250144229A1, “CONJUGATE OF ANTIBODY-ERIBULIN OR DERIVATIVE THEREOF, INTERMEDIATE THEREOF, PREPARATION METHOD THEREFOR, PHARMACEUTICAL COMPOSITION THEREOF AND USE THEREOF” (MEDLINK THERAPEUTICS (SUZHOU) CO., LTD., priority 2022, published 2025).
“And” between values parts separate entries of the source, which are not always exact repeats. Equal values may be shown once. Where a name gives a salt, the structure may show the parent alone. Read-outs that look alike come from different tables or passages of the source.

Columns and labels:
A549 tumor cells = experiment: Cell affinity assay of anti-B7H3 antibody by FACS, A549; format: binding, human; settings: flow cytometry; middle B7H3-expressing cells
Method: (§1) B7H3 protein is highly expressed in a variety of solid tumor cells. The affinity of B7H3 full human antibody to tumor cells was tested by FACS. Specific experimental procedures: MCF-7 breast cancer cells, A549 human non-small cell lung cancer cells, and PC3 human prostate cancer cells grown to logarithmic phase were digested by trypsin, and resuspended to 5*10^5 cells/mL in PBS buffer containing 2% BSA. 100 μL of cell suspension was added to a 96-well plate. […] 100 μL of antibody suspension was then added into the 96-well plate and mixed homogeneously. The plate was incubated at 4° C. for 1 hour, washed twice with pre-cooled PBS at 300 μL/well each time, and centrifuged at 500 g for 5 minutes. 1:50 fluorescent secondary antibody APC anti-human IgG or PE anti-human IgG (purchased from Biolegend) was added at 100 μL/well and mixed homogeneously. The plate was incubated at 4° C. for 0.5 hours, washed twice with pre-cooled PBS at 300 μL/well each time, centrifuged at 500 g for 5 minutes, and resuspended in 500 μL of PBS. The average fluorescence signal value was measured by Beckman flow cytometer. The EC50 value was calculated from the average fluorescence signal value.

MCF-7 tumor cells = experiment: Cell affinity assay of anti-B7H3 antibody by FACS, MCF-7; format: binding; settings: flow cytometry
Method: as §1

[1] = biological target: T1, human B7H3-4IgG-His protein (Homo sapiens, UniProt Q5ZPR3); experiment: ELISA protein affinity assay of anti-B7H3 antibody, human protein; format: binding; settings: coated protein
T1 construct: amino acids at positions 27 to 461 (Uniport protein No. Q5ZPR3-1) of human 4Ig B7H3; 6xHis (C); made in house; host or cells: HEK293F (transient, PTT5 vector)
T1 sequence (Q5ZPR3 27-461): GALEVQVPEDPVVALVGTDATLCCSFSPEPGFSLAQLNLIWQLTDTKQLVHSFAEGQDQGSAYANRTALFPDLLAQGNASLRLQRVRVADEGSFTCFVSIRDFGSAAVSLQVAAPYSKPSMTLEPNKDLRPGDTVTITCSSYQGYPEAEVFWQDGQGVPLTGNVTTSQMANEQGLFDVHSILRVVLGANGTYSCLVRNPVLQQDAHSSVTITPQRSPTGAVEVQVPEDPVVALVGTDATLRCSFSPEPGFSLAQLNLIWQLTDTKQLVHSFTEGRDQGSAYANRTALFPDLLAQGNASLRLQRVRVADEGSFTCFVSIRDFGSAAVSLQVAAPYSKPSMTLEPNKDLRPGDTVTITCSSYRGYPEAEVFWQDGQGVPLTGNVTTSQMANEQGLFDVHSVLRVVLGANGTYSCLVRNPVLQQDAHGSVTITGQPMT
Method: The plate was washed five times with PBST. […] The absorbance was measured at 450 nm.

PC-3 tumor cells = experiment: Cell affinity assay of anti-B7H3 antibody by FACS, PC-3; format: binding, human; settings: flow cytometry
Method: as §1

HT29 = experiment: Inhibitory activity of ADC on cell viability in vitro (CCK8), HT29; format: cell-based; settings: Homo sapiens, HT-29, 168 h, 7 days incubation, B7H3 positive tumor cells
Method: (§2) HT29, NCI-H358 (HT29 and NCI-H358 are B7H3 positive tumor cells), SW480, A375, A549, and Calu-3 (Calu-3 is B7H3 negative tumor cells) tumor cells were digested by trypsin using conventional methods. Cells in the tube were collected and counted, then resuspended in the corresponding assay medium (containing 2% FBS), and added to a 96-well plate at 2000 to 5000 cells/well. 100 μL of ADC diluted in 2% FBS medium was added to the 96-well plate, with 3-fold serial dilution at an initial concentration of 150 µg/mL (12 concentration gradients). The plate was incubated at 37° C. under 5% CO2 for 7 days. 20 μL of CCK8 reagent was then added to each well, and the reaction was carried out for 2 to 6 hours. The plate was read on a microplate reader (detection wavelength: 450 nm). The test results are shown in Table 3-1, Table 3-2, and FIGS. 7A to 7E.

A375 = experiment: Inhibitory activity of ADC on cell viability in vitro (CCK8), A375; format: cell-based; settings: Homo sapiens, A-375, 168 h, 7 days incubation
Method: as §2

SW480 = experiment: Inhibitory activity of ADC on cell viability in vitro (CCK8), SW480; format: cell-based; settings: Homo sapiens, SW480, 168 h, 7 days incubation
Method: as §2

A549 = experiment: Inhibitory activity of ADC on cell viability in vitro (CCK8), A549; format: cell-based; settings: Homo sapiens, A549, 168 h, 7 days incubation
Method: as §2

[2] = cited from earlier work
[3] = biological target: B7H3 protein on human tumor cells (MCF-7, A549, PC-3, HT29) (human) (UniProt Q5ZPR3); experiment: flow cytometry on MCF-7 tumor cells
[4] = biological target: monkey B7H3-4IgG-His (monkey); experiment: ELISA, antigen coated on the plate, anti-human Fc-HRP detection
[5] = biological target: T2, human B7H3-4IgG-His (human) (UniProt Q5ZPR3); experiment: as above
T2 sequence: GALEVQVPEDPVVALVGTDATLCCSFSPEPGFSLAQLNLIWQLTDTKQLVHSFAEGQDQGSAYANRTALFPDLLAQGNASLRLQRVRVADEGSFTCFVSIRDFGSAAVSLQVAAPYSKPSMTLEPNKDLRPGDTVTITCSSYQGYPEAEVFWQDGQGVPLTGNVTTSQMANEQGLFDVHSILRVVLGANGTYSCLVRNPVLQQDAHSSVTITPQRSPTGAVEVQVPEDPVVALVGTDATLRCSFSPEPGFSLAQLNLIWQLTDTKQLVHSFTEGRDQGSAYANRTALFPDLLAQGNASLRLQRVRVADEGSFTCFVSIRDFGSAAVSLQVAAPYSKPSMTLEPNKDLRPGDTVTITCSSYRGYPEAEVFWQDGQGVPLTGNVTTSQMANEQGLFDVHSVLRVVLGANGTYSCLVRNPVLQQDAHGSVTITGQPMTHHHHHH

[6] = biological target: B7H3 protein on human tumor cells (MCF-7, A549, PC-3, HT29) (human) (UniProt Q5ZPR3); experiment: flow cytometry on A549 tumor cells
[7] = biological target: B7H3 protein on human tumor cells (MCF-7, A549, PC-3, HT29) (human) (UniProt Q5ZPR3); experiment: flow cytometry on PC-3 tumor cells
[8] = biological target: B7H3 protein on human tumor cells (MCF-7, A549, PC-3, HT29) (human) (UniProt Q5ZPR3); experiment: flow cytometry on A549 tumor cells; remark: listed apart in the source
[9] = biological target: B7H3 protein on human tumor cells (MCF-7, A549, PC-3, HT29) (human) (UniProt Q5ZPR3); experiment: flow cytometry on MCF-7 tumor cells; remark: listed apart in the source
[10] = biological target: monkey B7H3-4IgG-His (monkey); experiment: ELISA, antigen coated on the plate, anti-human Fc-HRP detection; remark: listed apart in the source
[11] = biological target: T2, human B7H3-4IgG-His (human); experiment: as above; remark: listed apart in the source

Chain of B7H3 protein on human tumor cells (MCF-7, A549, PC-3, HT29) (human) (Q5ZPR3 29-534): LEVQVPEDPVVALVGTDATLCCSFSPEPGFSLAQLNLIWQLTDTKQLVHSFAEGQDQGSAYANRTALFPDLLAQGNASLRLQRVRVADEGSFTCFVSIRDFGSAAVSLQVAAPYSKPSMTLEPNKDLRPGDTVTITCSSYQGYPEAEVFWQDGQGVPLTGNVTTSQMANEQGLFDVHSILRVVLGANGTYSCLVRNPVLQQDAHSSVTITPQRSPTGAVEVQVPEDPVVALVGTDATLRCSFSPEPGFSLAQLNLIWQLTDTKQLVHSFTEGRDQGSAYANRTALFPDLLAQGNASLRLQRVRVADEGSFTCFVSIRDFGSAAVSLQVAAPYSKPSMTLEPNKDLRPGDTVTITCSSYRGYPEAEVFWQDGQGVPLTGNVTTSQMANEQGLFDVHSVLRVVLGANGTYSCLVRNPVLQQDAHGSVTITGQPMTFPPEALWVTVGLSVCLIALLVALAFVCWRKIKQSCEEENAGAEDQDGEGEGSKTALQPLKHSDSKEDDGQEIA

For “B7H3-C1: anti-B7H3 antibody numbered M30-H1-L4 in CN103687945B”, the EC50 (A549 tumor cells) was 1.86 nM and 1.05 nM, the “MCF-7 tumor cells Maximum MFI” value (MCF-7 tumor cells) was 83992 and 63194 and the EC50 (MCF-7 tumor cells; high B7H3-expressing cells) was 1.71 nM and 1.36 nM. For the same molecule, the EC50 [1] was 0.048 nM, the “PC-3 tumor cells Maximum MFI” value (PC-3 tumor cells) was 6436 and the EC50 (PC-3 tumor cells; low B7H3-expressing cells) was 0.618 nM.

C=C1C[C@@H]2CC[C@@]34C[C@H]5O[C@H]6[C@@H](O3)[C@H]3O[C@H](CC[C@@H]3O[C@H]6[C@H]5O4)CC(=O)C[C@@H]3[C@@H](OC)[C@@H](C[C@H](O)CN)O[C@H]3C[C@H]3O[C@@H](CC[C@@H]1O2)C[C@@H](C)C3=C [Eribulin, eribulin] showed an IC50 (HT29) of 0.2 nM, an IC50 (A375) of 1.14 nM and an IC50 (SW480) of 1.38 nM. For the same molecule, the IC50 (A549) was 0.31 nM.

For C=C1C[C@@H]2CC[C@@]34C[C@H]5O[C@H]6[C@@H](O3)[C@H]3O[C@H](CC[C@@H]3O[C@H]6[C@H]5O4)CC(=O)C[C@@H]3[C@@H](OC)[C@@H](C[C@H](O)CN)O[C@H]3C[C@H]3O[C@@H](CC[C@@H]1O2)C[C@@H](C)C3=C [Eribulin mesylate], the “maximum tolerated dose (MTD)” value ([2]; intravenous infusion on day 1, 8 and 15 of a 28-day cycle, patients) is given as 1.4 mg/m^2 and the “grade 3-4 adverse events: neutropenia” value ([2]; patients treated with eribulin mesylate) is given as 64%.

B1: antibody B7H3-C1 (antibody, INN chains, looked up, V domains shown)
VH: QVQLVQSGAEVKKPGSSVKVSCKASGYTFTNYVMHWVRQAPGQGLEWMGYINPYNDDVKYNEKFKGRVTITADESTSTAYMELSSLRSEDTAVYYCARWGYYGSPLYYFDYWGQGTLVTVSS
VL: EIVLTQSPATLSLSPGERATLSCRASSRLIYMHWYQQKPGQAPRPLIYATSNLASGIPARFSGSGSGTDFTLTISSLEPEDFAVYYCQQWNSNPPTFGQGTKVEIK
With B1 the EC50 [3] was 1.36 nM, the Maximum MFI [3] was 63200 and the EC50 [4] was 0.167 nM. The EC50 [5] was 0.048 nM, the EC50 [6] was 1.86 nM and the Maximum MFI [6] was 8270. For the same molecule, the EC50 [7] was 0.618 nM, the Maximum MFI [7] was 6440 and the EC50 [8] was 1.05 nM. For the same molecule, the Maximum MFI [8] was 48000, the EC50 [9] was 1.71 nM and the Maximum MFI [9] was 84000. It also gave an EC50 [10] of 3.92 nM and an EC50 [11] of 0.0519 nM.
